How the values were obtained:
[1] = biological target: N1-SPP: recombinant N1 neuraminidase head domain of A/Michigan/45/2015 (H1N1) fused to the Sendai virus phosphoprotein tetramerization domain (Sendai virus | influenza A virus A/Michigan/45/2015 (H1N1)); test: cross-linking
[2] = biological target: N1 NA head domain from A/Michigan/45/2015 (H1N1), obtained from N1-MPP by thrombin cleavage (influenza A virus A/Michigan/45/2015 (H1N1)); test: crystal structure; N1 head after thrombin removal of the MPP domain; sitting drop, 0.2 M calcium acetate, 20% PEG 3350, 20°C; 2.90 Å
[3] = biological target: N1-MPP: recombinant N1 neuraminidase head domain of A/Michigan/45/2015 (H1N1) fused to the measles virus phosphoprotein tetramerization domain (measles virus | influenza A virus A/Michigan/45/2015 (H1N1)); test: cross-linking
[4] = biological target: N1-VASP: recombinant N1 neuraminidase head domain of A/Michigan/45/2015 (H1N1) fused to the vasodilator-stimulated phosphoprotein tetramerization domain (human | influenza A virus A/Michigan/45/2015 (H1N1)); test: cross-linking

## N1-SPP: recombinant N1 neuraminidase head domain of A/Michigan/45/2015 (H1N1) fused to the Sendai virus phosphoprotein tetramerization domain
[1]
  stoichiometry N: 4

## N1 NA head domain from A/Michigan/45/2015 (H1N1), obtained from N1-MPP by thrombin cleavage (domain or fragment)
[2]
  stoichiometry N: 4

## N1-MPP: recombinant N1 neuraminidase head domain of A/Michigan/45/2015 (H1N1) fused to the measles virus phosphoprotein tetramerization domain
[3]
  stoichiometry N: 4

## N1-VASP: recombinant N1 neuraminidase head domain of A/Michigan/45/2015 (H1N1) fused to the vasodilator-stimulated phosphoprotein tetramerization domain
[4]
  stoichiometry N: 4

From article PMC8609353
